Experimental findings from US20250090663A1 are described below.

What is called Kd is the free concentration of one partner at which half of the binding sites on the other are occupied at equilibrium, for simple one-to-one binding. Lower therefore signals higher affinity.

The target of one assay is Cyno GPC3.hFc. Put plainly: SPR (Carterra).
Another assay has as its target Human GPC3.hFc. In words: SPR (Carterra).

Take HGC33 scFv: the values for the Kd with Cyno GPC3.hFc and with Human GPC3.hFc were 2.46 nM and 2.63 nM, respectively.
